Assay [1] can be described thus: Small-scale anaerobic C—H amination with purified enzymes, azide 6. Format: biochemical. The settings on record: 0.1% loading; azide 6. How it is done:
Hemin also was capable of catalyzing this reaction when reduced with dithionite (Table 13).
Small scale reactions containing either 0.1% loading of ABC-CIS or ABC-T268A or 1% loading of hemin with azides 1, 4, or 6 according to standard procedures.
Small-scale reactions (400 μL) were conducted in 2 mL crimp vials (Agilent Technologies, San Diego, Calif.) containing buffer (0.1 M potassium phosphate pH 8.0), enzyme (0.1-0.5% catalyst loading) and oxygen depletion system (10× stock solution containing 14,000 U/mL catalase, 1,000 U/mL glucose oxidase dissolved in 0.1 M KPi pH 8.0). Enzyme (P450 or P411) solution and oxygen depletion mixture were added to the vial with a small stir bar before crimp-sealing. Portions of phosphate buffer (190 μL, 0.1 M, pH=8.0), glucose (40 μL, 250 mM) and NADPH (40 μL, 20 mM), or multiples thereof, were combined in a larger crimp sealed vial and degassed by sparging with argon for at least 5 min. In the meantime, the headspace of the sealed 2 mL reaction vial with the P450 solution was made anaerobic by flushing argon over the protein solution (with no bubbling). The buffer/reductant/glucose solution (270 μL) was syringed into the reaction vial with continuous argon purge of the vial headspace. An arylsulfonyl azide solution in DMSO (10 μL, 80 mM) was added to the reaction vial via a glass syringe, and the reaction was left stirring for 24 h at room temperature under positive argon pressure. Final concentrations of the reagents were typically: 2 mM arylsulfonyl azide, 2 mM NADPH, 25 mM glucose, 2 or 10 μM P450. Reactions were quenched by adding 30 μL 3 M HCl under argon. To the vials were then added acetonitrile (430 uL) and internal standard (o-toluenesulfonamide 10 mM in 50% acetonitrile 50% water, 1 mM final concentration). […] A portion (20 μL) of the supernatant was then analyzed by HPLC. […] Sultam formation was quantified comparison of integrated peak areas of internal standard and sultam at 220 nm to a calibration curve made using synthetically produced sultam and internal standard.

Assay [2] is described as follows: N—H insertion, aniline with ethyl diazo acetate (EDA). Format: biochemical. The settings on record: protein 10 uM, EDA 8.5 mM, aniline 20 mM, Na2S2O4 10 mM, 12 h; for % Yield: product 4.3. Summed up:
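Final reactions contained 10 or 20 μM P450BM3 variant, 20 mM aniline, 8.5 mM EDA and 10 mM Na2S2O4 in 0.1 M phosphate pH 8.0 under argon, with MeOH cosolvent. After 12 h at 25° C, products were extracted into cyclohexane and quantified by GC-FID against phenethyl alcohol internal standard and calibration curves from authentic standards, giving yield and TTN.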

B1: ABC-CIS: BM3-CIS + C400S (protein, listed as Bacillus megaterium)
chain: TIKEMPQPKTFGELKNLPLLNTDKPVQALMKIADELGEIFKFEAPGRVTRYLSSQRLIKEACDESRFDKNLSQALKFARDFAGDGLVTSWTHEKNWKKAHNILLPSFSQQAMKGYHAMMVDIAVQLVQKWERLNADEHIEVSEDMTRLTLDTIGLCGFNYRFNSFYRDQPHPFIISMVRALDEVMNKLQRANPDDPAYDENKRQFQEDIKVMNDLVDKIIADRKARGEQSDDLLTQMLNGKDPETGEPLDDGNIRYQIITFLIAGHEATSGLLSFALYFLVKNPHVLQKVAEEAARVLVDPVPSYKQVKQLKYVGMVLNEALRLWPTAPAFSLYAKEDTVLGGEYPLEKGDEVMVLIPQLHRDKTVWGDDVEEFRPERFENPSAIPQHAFKPFGNGQRASIGQQFALHEATLVLGMMLKHFDFEDHTNYELDIKETLTLKPKGFVVKAKSKKIPLGGIPSPSTEQSAKKVRKKAENAHNTPLLVLYGSNMGTAEGTARDLADIAMSKGFAPQVATLDSHAGNLPREGAVLIVTASYNGHPPDNAKQFVDWLDQASADEVKGVRYSVFGCGDKNWATTYQKVPAFIDETLAAKGAENIADRGEADASDDFEGTYEEWREHMWSDVAAYFNLDIENSEDNKSTLSLQFVDSAADMPLAKMHGAFSTNVVASKELQQPGSARSTRHLEIELPKEASYQEGDHLGVIPRNYEGIVNRVTARFGLDASQQIRLEAEEEKLAHLPLAKTVSVEELLQYVELQDPVTRTQLRAMAAKTVCPPHKVELEALLEKQAYKEQVLAKRLTMLELLEKYPACEMKFSEFIALLPSIRPRYYSISSSPRVDEKQASITVSVVSGEAWSGYGEYKGIASNYLAELQEGDTITCFISTPQSEFTLPKDPETPLIMVGPGTGVAPFRGFVQARKQLKEQGQSLGEAHLYFGCRSPHEDYLYQEELENAQSEGIITLHTAFSRMPNQPKTYVQHVMEQDGKKLIELLDQGAHFYICGDGSQMAPAVEATLMKSYADVHQVSEADARLWLQQLEEKGRYAKDVWAG
modifications: cytochrome P450NADPH-P-450 reductase precursor, cytochrome P450 (BM3), CYP102A1
notes: BM3-CIS + C400S
Consider B1, for which the “Product (7)” value in assay [1] was determined as 36. Besides, in assay [2], the TTn amounted to 136 and the “% Yield” value is recorded as 14%.

B2: ABC-T268A: P450BM3 variant: T268A, C400S (protein, listed as Bacillus megaterium)
chain: TIKEMPQPKTFGELKNLPLLNTDKPVQALMKIADELGEIFKFEAPGRVTRYLSSQRLIKEACDESRFDKNLSQALKFVRDFAGDGLFTSWTHEKNWKKAHNILLPSFSQQAMKGYHAMMVDIAVQLVQKWERLNADEHIEVPEDMTRLTLDTIGLCGFNYRFNSFYRDQPHPFITSMVRALDEAMNKLQRANPDDPAYDENKRQFQEDIKVMNDLVDKIIADRKASGEQSDDLLTHMLNGKDPETGEPLDDENIRYQIITFLIAGHEATSGLLSFALYFLVKNPHVLQKAAEEAARVLVDPVPSYKQVKQLKYVGMVLNEALRLWPTAPAFSLYAKEDTVLGGEYPLEKGDELMVLIPQLHRDKTIWGDDVEEFRPERFENPSAIPQHAFKPFGNGQRASIGQQFALHEATLVLGMMLKHFDFEDHTNYELDIKETLTLKPEGFVVKAKSKKIPLGGIPSPSTEQSAKKVRKKAENAHNTPLLVLYGSNMGTAEGTARDLADIAMSKGFAPQVATLDSHAGNLPREGAVLIVTASYNGHPPDNAKQFVDWLDQASADEVKGVRYSVFGCGDKNWATTYQKVPAFIDETLAAKGAENIADRGEADASDDFEGTYEEWREHMWSDVAAYFNLDIENSEDNKSTLSLQFVDSAADMPLAKMHGAFSTNVVASKELQQPGSARSTRHLEIELPKEASYQEGDHLGVIPRNYEGIVNRVTARFGLDASQQIRLEAEEEKLAHLPLAKTVSVEELLQYVELQDPVTRTQLRAMAAKTVCPPHKVELEALLEKQAYKEQVLAKRLTMLELLEKYPACEMKFSEFIALLPSIRPRYYSISSSPRVDEKQASITVSVVSGEAWSGYGEYKGIASNYLAELQEGDTITCFISTPQSEFTLPKDPETPLIMVGPGTGVAPFRGFVQARKQLKEQGQSLGEAHLYFGCRSPHEDYLYQEELENAQSEGIITLHTAFSRMPNQPKTYVQHVMEQDGKKLIELLDQGAHFYICGDGSQMAPAVEATLMKSYADVHQVSEADARLWLQQLEEKGRYAKDVWAG
modifications: cytochrome P450NADPH-P-450 reductase precursor, cytochrome P450 (BM3), CYP102A1
notes: P450BM3 variant: T268A, C400S
As to B2, in assay [1], the “Product (7)” value is recorded as 27. In assay [2], the TTn was found to be 95 and the “% Yield” value came to 9.5%.
